In patent publication EP4474393A1:

Legend:
Assay in all cases: cell-based or functional assay
[1] = target: HIV-1 envelope proteins of the panel of 12 global reference pseudovirus strains of HIV-1
[2] = target: HIV-1 envelope proteins of the panel of 7 pseudoviruses selected from the 'Resistant panel to CD4bs bNAbs'
[3] = target: HIV-1 envelope proteins of the multiclade panel of 119 pseudoviruses
[4] = target: HIV-1 envelope proteins of the panel of 9 pseudoviruses resistant against CD4bs bNAbs
[5] = target: HIV-1 envelope proteins of the panel of 185 pseudoviruses generated from the Antibody Mediated Prevention Trials
[6] = target: HIV-1 envelope proteins of the panel of 100 clade C HIV-1 pseudoviruses
[7] = target: HIV-1 envelope proteins of the panel of 8 pseudoviruses insensitive to neutralization by CD4bs bNAbs

B1: 04_A06 (antibody, V domains shown)
VH: SVRLDQSGTAVKKPGASVRVSCRAPDSFTVYRPRLSAYFIGEFNIHWLRQAPGQGLEWLGFVNIFRGAVKYSSRFQGRITITRDTSSETSYLDLGALKADDTATYYCAWDKNVDDNPWRLDSWGQGTLVIVSS
VL: YIQVTQSPSSLSASIGDTITVACEVSQDVGWAVNWYHQRPGRPPYNLIYTAHNLAPGVASRFRGSRVGTYFTLTINNLLPEDVGTYYCQVFDSFAPGGTRVDL
geometric mean IC50, TZM-bl cell pseudovirus neutralization assay [1]: 0.038 µg/mL | neutralization breadth, TZM-bl cell pseudovirus neutralization assay [1]: 100% | IC50, TZM-bl cell pseudovirus neutralization assay [2]: 0.153 µg/mL | neutralization breadth, TZM-bl cell pseudovirus neutralization assay, up to 10 µg/ml [2]: 86% | geometric mean IC50, TZM-bl cell pseudovirus neutralization assay [3]: 0.036 µg/mL | neutralization breadth, TZM-bl cell pseudovirus neutralization assay, up to 10 µg/ml [3]: 99% | neutralization breadth, TZM-bl cell pseudovirus neutralization assay, up to 10 µg/ml [4]: 100% | GeoMean IC50, TZM-bl cell pseudovirus neutralization assay [5]: 0.084 µg/mL | neutralization breadth, TZM-bl cell pseudovirus neutralization assay [5]: < 98% | geometric mean IC50, TZM-bl cell pseudovirus neutralization assay [6]: 0.057 µg/mL | neutralization breadth, TZM-bl cell pseudovirus neutralization assay, up to 10 µg/ml [6]: 99%

B2: 04_B09 (antibody, V domains shown)
VH: SVRLDQSGTAVKKPGASVRVSCRAPDSFTVYRPRLSAYFIGEFNIHWLRQAPGQGLEWLGFVNIFRGAVKYSSAFRGRITITRDTSLETSYLDLGALKPDDTATYFCAWDKNVDDNPWRLDSWGQGTLVVVSS
VL: YIQVTQSPSSLSASVGDTITVACQVSQDVGWAVNWYHQRPGRPPYNLIYTTSNLAPGVASRFRGTRVATYFTLTINNLLPEDVGTYYCQVFESFAPGGTRVDLR
geometric mean IC50, TZM-bl cell pseudovirus neutralization assay [1]: < 0.05 µg/mL | neutralization breadth, TZM-bl cell pseudovirus neutralization assay [1]: 100%

B3: 01_B01 (antibody, V domains shown)
VH: HVQLWQSGAEVKKPGASVKISCAAWGFGTTSGYSFRDYRIHWVRQVPGQGFQWMGHIQPRYGAVNYAHQFQGRITMTREVSFDASGGTAYMELRSLRSDDTATYYCVTHKLYDGEDASDLAWRLDPWGQGTRVTVSS
VL: GVHLTQSPASLSASVGDRVTFTCQASQDITNAINWYQLRPGKTPKLMIHDGSTLRRGVPSRFAGGGFGTKFTFTIDNLQPEDLATYFCQHYEFFPPAGTQVELN
geometric mean IC50, TZM-bl cell pseudovirus neutralization assay [1]: < 0.05 µg/mL | neutralization breadth, TZM-bl cell pseudovirus neutralization assay [1]: 100%

B4: 05_C07 (antibody, V domains shown)
VH: HVQLWQSGAEVKKPGASVKISCSAWGFGTRSGYTFRDYRIHWVRQVPRQGFEWMGHLHPAYGAVNYARQFQGRIIMTREVSFDGSGGTVYMELRSLRSDDTATYYCVTHKLYDGEDASDLTWRLDPWGQGTRVTVSS
VL: GVSLTQSPASLCASVGDRVTFTCQASQDITNAINWYQLRPGKTPKLMIHDGSTLRRGVPSRFAGSGFGTRFTFTIDNLQPEDLATYFCQHYEFFPPAGTQVDFN
geometric mean IC50, TZM-bl cell pseudovirus neutralization assay [1]: < 0.05 µg/mL | neutralization breadth, TZM-bl cell pseudovirus neutralization assay [1]: 100%

B5: 01_D03 (antibody, V domains shown)
VH: HVQLWQSGAEVKKPGASVKISCSAWGFGTTSGYSFRDYRVHWVRHIAGQGFQWMGHMQPRYGAVNYARQFQGRITMTREVSFDASGGTAYMELRSLRSDDTAVYYCVTHKLYDGEDASDLTWRLDPWGQGTRVIVSS
VL: GVHLTQSPASLSASVGDRVTFTCQASQDITNAINWYQLRPGKTPKLMIHDGSTLRRGVPSRFAGSGFGTKFTFTIDNLQPEDLATYFCQHYEFFPPVGTQVELN
geometric mean IC50, TZM-bl cell pseudovirus neutralization assay [1]: 0.021 µg/mL | neutralization breadth, TZM-bl cell pseudovirus neutralization assay [1]: 100% | neutralization breadth, TZM-bl cell pseudovirus neutralization assay [7]: 88%
